Residue numbers refer to the chain shown, from its start. Where two headings read alike, the source gives them in different places.
B1: M12-D05: antibody inhibitor of pKal; HV-CDR3 EGLLWFGENAFDI (antibody, V domains shown)
VL: QSVLTQPPSVSVSPGQTATITCSGDQLGDKYVGWYQQKPGQSPILVIYQDTKRPSGIPERFSGSNSGNTATLTISGTHTVDEAHYYCQAWDTSTAGFGGGTKLTVL
VH: EVQLLESGGGLVQPGGSLRLSCAASGFTFSWYTMVWVRQAPGKGLEWVSRIYPSGGWTKYADSVKGRFTISRDNSKNTLYLQMNSLRAEDTATYYCAREGLLWFGENAFDIWGQGTMVTVSSASTKGPSVFPLAPSSKS
B2: M28-B11: antibody inhibitor of pKal; HV-CDR3 EGLLWFGENAFDI (antibody, V domains shown)
VL: B1 VL
VH: B1 VH
B3: M137-E12: antibody inhibitor of pKal; HV-CDR3 … (antibody, V domains shown)
VL: QSVLIQPPSVSGIPGQRVTISCSGNNSNFGSNTVTWYQQLPGTAPKLLIYSDSRRPSGVPDRFSGSRSDTSASLAISGLQSEDEAEYHCAAWDDSLNGVFGGGTKLTVL
VH: EVQLLESGGGLVQPGGSLRLSCAASGFTFSDYRMQWVRQAPGKGLEWVSVIVPSGGNTMYADSVKGRFTISRDNSKNTLYLQMNSLRAEDTAVYYCARGGPGSSIAARRAPTGYYGMDVWGQGTTVTVSSASTKGPSVFPLAPSSKS
B4: M202-A12 (antibody, V domains shown)
VL: QDIQMTQSPSTLSASVGDRVTITCRASQSISSWLAWYQQKPGKAPNLLIYKASTLESGVPSRFSGSGSGTEFTLTISSLQPDDFATYYCQQYNTYWTFGQGTKVEIK
VH: EVQLLESGGGLVQPGGSLRLSCAASGFTFSHYIMMWVRQAPGKGLEWVSGIYSSGGITVYADSVKGRFTISRDNSKNTLYLQMNSLRAEDTAVYYCAYQRTGVPRRDSFNIWGQGTMVTVSSASTKGPSVFPLAPSSKS
B5: M210-C12 (antibody, V domains shown)
VL: QDIQMTQSPGTLSLSPGERATLSCRTSQFVNSNYLAWYQQTPGQAPRLLIYGASSRATGIPDRFSGTGYGTDFTLTISRLEPEDYGTYYCQQSSRTPWTFGQGTRVEIK
VH: EVQLLESGGGLVQPGGSLRLSCAASGFTFSHYLMTWVRQAPGKGLEWVSYISPSGGHTIYADSVKGRFTISRDNSKNTLYLQMNSLRAEDTAVYYCARVAQGIAARSRTSSVDQWGQGTLVTVSSASTKGPSVFPLAPSSKS
B6: M206-F01 (antibody, V domains shown)
VL: B5 VL
VH: B5 VH with H31G, L33M, T35V, Y50R, H57P, Q101R, S111Y, V112F, Q114Y
B7: M209-F04 (antibody, V domains shown)
VL: B5 VL
VH: B5 VH with Q101R, S111Y, V112L
B8: M29-D09: antibody inhibitor of pKal; HV-CDR3 GSYDYIWGFYSDH (antibody, V domains shown)
VL: QSALTQPPTVSVSPGQTARITCSGNKLGDKYVAWYQQKPGQSPMLVIYQDTKRPSAIPERFSGSNSANTATLSISGTQALDEADYYCQAWDSSIVIFGGGTRLTVL
VH: EVQLLESGGGLVQPGGSLRLSCAASGFTFSWYTMVWVRQAPGKGLEWVSYIYPSGGATFYADSVKGRFTISRDNSKNTLYLQMNSLRAEDTAVYYCAMGSYDYIWGFYSDHWGQGTLVTVSSASTKGPSVFPLAPSSKS

Tests used:
[1] = target: T1, human plasma kallikrein (human pKal) (Homo sapiens, UniProt P03952); assay: Ki,app against human pKal by steady state enzyme kinetics (in vitro protease cleavage assay, Pro-Phe-Arg-aminomethylcoumarin substrate); assay type: biochemical
T1 construct: two disulfide linked polypeptides; a heavy chain of approximately 52 kDa and a catalytic domain of approximately 34 kDa; host or cells: human plasma
Text: The inhibition constant (Ki) provides a measure of inhibitor potency; it is the concentration of inhibitor required to reduce enzyme activity by half and is not dependent on enzyme or substrate concentrations. The apparent Ki (Ki,app) is obtained at different substrate concentrations by measuring the inhibitory effect of different concentrations of inhibitor (e.g., inhibitory binding protein) on the extent of the reaction (e.g., enzyme activity); fitting the change in pseudo-first order rate constant as a function of inhibitor concentration to the Morrison equation (Equation 1) yields an estimate of the apparent Ki value. The Ki is obtained from the y-intercept extracted from a linear regression analysis of a plot of Ki,app versus substrate concentration.
Where v=measured velocity; v0=velocity in the absence of inhibitor; Ki,app=apparent inhibition constant; I=total inhibitor concentration; and E=total enzyme concentration.
The sequence of human plasma kallikrein that was used in selections and subsequent screening of binding proteins is shown below (accession number NP_000883.2). The human plasma kallikrein (86 kDa) that was used was purified from human plasma and activated with factor XIIa by a commercial vendor. Factor XIIa activates prekallikrein by cleaving the polypeptide sequence at a single site (between Arg371-Ile372, cleavage site marked by “/” in the sequence below) to generate active plasma kallikrein, which then consists of two disulfide linked polypeptides; a heavy chain of approximately 52 kDa and a catalytic domain of approximately 34 kDa [Colman and Schmaier, (1997) “Contact System: A Vascular Biology Modulator With Anticoagulant, Profibrinolytic, Antiadhesive, and Proinflammatory Attributes” Blood, 90, 3819-3843]
These antibodies were produced as Fab fragments in small scale (˜20 μg) and tested for inhibition against human pKal in an in vitro protease cleavage assay using Pro-Phe-Arg-aminomethylcoumarin as the synthetic peptide substrate. […] Five antibodies were then expressed in 293T cells and purified by protein A sepharose chromatography. The antibodies were analyzed by SDS-PAGE to determine which of the inhibitory mutants are not cleaved by the host cell protease(s) (data not shown).

[2] = target: T2, biotinylated plasma kallikrein (human pKal) (Homo sapiens, UniProt P03952); assay: Human pKal ELISA (T/B); assay type: binding; conditions: ELISA signal of target (biotinylated plasma kallikrein) divided by signal of background (streptavidin); Table 6
T2 construct: two disulfide linked polypeptides; a heavy chain of approximately 52 kDa and a catalytic domain of approximately 34 kDa; host or cells: human plasma

[3] = target: T3, pKal (Homo sapiens, UniProt P03952); assay: Inhibition screening with 10 nM antibody (as Fab fragments); assay type: biochemical
T3 construct: two disulfide linked polypeptides; a heavy chain of approximately 52 kDa and a catalytic domain of approximately 34 kDa; host or cells: human plasma
Text: The 82 antibodies that were discovered based on improvements in M162-A04 due to modifications in either the CDR1/2 and CDR3 region are shown in Table 12.
The 62 antibodies that were discovered based on improvements in X63-G06 due to modifications in either the CDR1/2 and CDR3 region are shown in Table 13.

[4] = target: T4, mouse pKal (Mus musculus, UniProt P26262); assay: Ki,app against mouse pKal; assay type: biochemical; conditions: Table 15
T4 construct: active plasma kallikrein (pkal) has the single polypeptide chain cleaved at a single position
Protocol: Fourth, antibodies were tested for their ability to inhibit pKal from other species, besides human, where the amino acid sequence of pKal has been determined in order to identify amino acids that may account for the differences in inhibition.
Antibodies that inhibit the activity of pKal either bind near the active site and preclude substrate interactions (competitive inhibitors) or that bind away from the active site and induce allosteric changes in the structure of the active site (noncompetitive inhibitors).

[5] = Table 6, read-out: Human pKal (Ki, app nM)
[6] = human pKal, Table 13, antibodies based on X63-G06, read-out: human pKal Ki, app
[7] = Table 13, antibodies based on X63-G06

T2 sequence (P03952 391-638 limits assumed): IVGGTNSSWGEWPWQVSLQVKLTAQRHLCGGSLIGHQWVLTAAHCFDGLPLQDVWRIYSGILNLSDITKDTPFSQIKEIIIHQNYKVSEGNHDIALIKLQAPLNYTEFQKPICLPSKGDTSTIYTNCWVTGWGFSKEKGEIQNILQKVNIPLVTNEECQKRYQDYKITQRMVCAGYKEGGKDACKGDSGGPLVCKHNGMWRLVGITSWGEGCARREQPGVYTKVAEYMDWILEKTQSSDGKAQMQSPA
T2 sequence (P03952 20-390 partner limits assumed): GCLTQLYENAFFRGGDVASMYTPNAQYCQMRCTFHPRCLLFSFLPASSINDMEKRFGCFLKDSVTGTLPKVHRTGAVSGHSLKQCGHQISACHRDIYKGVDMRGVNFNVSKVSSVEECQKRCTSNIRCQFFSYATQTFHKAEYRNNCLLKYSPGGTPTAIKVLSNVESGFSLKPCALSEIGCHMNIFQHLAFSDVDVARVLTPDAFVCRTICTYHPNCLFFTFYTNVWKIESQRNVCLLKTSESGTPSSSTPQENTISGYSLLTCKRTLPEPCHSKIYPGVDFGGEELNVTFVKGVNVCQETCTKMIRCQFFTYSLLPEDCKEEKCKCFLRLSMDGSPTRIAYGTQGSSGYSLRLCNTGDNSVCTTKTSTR
T1 sequence (P03952 391-638 limits assumed): as the sequence (P03952 391-638 limits assumed) above
T1 sequence (P03952 20-390 partner limits assumed): as the sequence (P03952 20-390 partner limits assumed) above
T3 sequence (P03952 391-638 limits assumed): as the sequence (P03952 391-638 limits assumed) above
T3 sequence (P03952 20-390 partner limits assumed): as the sequence (P03952 20-390 partner limits assumed) above
T4 sequence (P26262 391-638 limits assumed): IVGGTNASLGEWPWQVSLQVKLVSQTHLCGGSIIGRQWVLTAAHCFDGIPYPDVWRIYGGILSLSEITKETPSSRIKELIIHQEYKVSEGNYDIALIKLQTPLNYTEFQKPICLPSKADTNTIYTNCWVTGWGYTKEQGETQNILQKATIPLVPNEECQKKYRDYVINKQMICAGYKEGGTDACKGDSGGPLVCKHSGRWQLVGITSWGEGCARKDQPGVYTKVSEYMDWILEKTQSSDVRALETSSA
T4 sequence (P26262 20-390 partner limits assumed): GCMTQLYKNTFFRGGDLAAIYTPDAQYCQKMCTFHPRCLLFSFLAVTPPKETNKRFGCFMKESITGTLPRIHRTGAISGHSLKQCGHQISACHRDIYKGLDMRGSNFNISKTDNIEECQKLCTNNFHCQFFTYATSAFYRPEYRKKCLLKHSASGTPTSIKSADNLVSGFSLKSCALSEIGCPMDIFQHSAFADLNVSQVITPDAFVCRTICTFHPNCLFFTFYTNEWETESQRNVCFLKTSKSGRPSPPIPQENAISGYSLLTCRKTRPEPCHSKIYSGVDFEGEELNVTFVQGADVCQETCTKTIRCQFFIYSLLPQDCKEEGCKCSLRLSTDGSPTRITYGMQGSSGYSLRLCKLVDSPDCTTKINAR

Molecule | Ki [1, 5] [nM] | Human pKal ELISA (T/B) [2] | Ki [1, 6] [nM] | % inhibition at 10 nM [3, 7] [%] | other results
B1 | 5.2 | 48.5 | – | – | –
B2 | 5.5 | 33.3 | – | – | –
B3 | 79 | 4.5 | – | – | –
B4 | – | – | – | – | Ki ([1]; human pKal, Table 12, antibodies based on M162-A04, read-out: human pKal Ki, app): 0.2 nM; % inhibition at 10 nM ([3]; Table 12, antibodies based on M162-A04): 97.5%
B5 | – | – | 0.16 | 95.6 | –
B6 | – | – | 0.2 | 92.6 | –
B7 | – | – | 0.09 | 97.6 | –
B8 | – | – | – | – | mouse Ki, app (nM) [4]: no

— patent publication US20100183625A1, “Treatment of Mucositis with Kallikrein Inhibitors” (Dyax Corp., priority 2009, published 2010)
